Results published in patent US20240150810.

Target: AMC-Ubiquitin, P62979

B1: recombinant USP22 (protein)
chain: MVSRPEPEGEAMDAELAVAPPGCSHLGSFKVDNWKQNLRAIYQCFVWSGTAEARKRKAKSCICHVCGVHLNRLHSCLYCVFFGCFTKKHIHEHAKAKRHNLAIDLMYGGIYCFLCQDYIYDKDMEIIAKEEQRKAWKMQGVGEKFSTWEPTKRELELLKHNPKRRKITSNCTIGLRGLINLGNTCFMNCIVQALTHTPLLRDFFLSDRHRCEMQSPSSCLVCEMSSLFQEFYSGHRSPHIPYKLLHLVWTHARHLAGYEQQDAHEFLIAALDVLHRHCKGDDNGKKANNPNHCNCIIDQIFTGGLQSDVTCQVCHGVSTTIDPFWDISLDLPGSSTPFWPLSPGSEGNVVNGESHVSGTTTLTDCLRRFTRPEHLGSSAKIKCSGCHSYQESTKQLTMKKLPIVACFHLKRFEHSAKLRRKITTYVSFPLELDMTPFMASSKESRMNGQYQQPTDSLNNDNKYSLFAVVNHQGTLESGHYTSFIRQHKDQWFKCDDAIITKASIKDVLDSEGYLLFYHKQFLEYE
fluorescence signal generated by cleavage of the fluorogenic substrate AMC-Ubiquitin (in vitro deubiquitination assay, time course): fluorescence resulting from the liberation of AMC increased over time in a USP22-dependent manner
